Paper PMC4960544, “Production of full-length soluble Plasmodium falciparum RH5 protein vaccine using a Drosophila melanogaster Schneider 2 stable cell line system” (Scientific Reports, 2016)

Tests used:
basigin (Homo sapiens) = basigin (Homo sapiens) (UniProt P35613); test: SPR; conditions: cited from earlier work
[1] = single-cycle GIA with purified rabbit total IgG; conditions: glycan lost; control: v5.0 (native sequons, glycosylated)
[2] = rabbit serum anti-PfRH5 v2.0 IgG ELISA; conditions: glycan lost; control: v5.0 (native sequons, glycosylated)
[3] = GIA versus anti-PfRH5 IgG concentration, fitted curves; conditions: glycan lost; control: v5.0 (native sequons, glycosylated)

Sequence of basigin (Homo sapiens) (P35613 22-325): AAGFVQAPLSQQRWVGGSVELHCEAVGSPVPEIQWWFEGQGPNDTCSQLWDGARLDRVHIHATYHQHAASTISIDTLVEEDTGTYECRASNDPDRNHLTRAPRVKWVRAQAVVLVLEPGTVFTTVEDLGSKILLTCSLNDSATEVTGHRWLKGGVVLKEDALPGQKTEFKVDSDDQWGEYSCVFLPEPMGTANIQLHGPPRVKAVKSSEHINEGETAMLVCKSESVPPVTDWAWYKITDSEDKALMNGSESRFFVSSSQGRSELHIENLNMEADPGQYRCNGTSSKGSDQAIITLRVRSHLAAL

Molecule | Kd (basigin (Homo sapiens)) [nM] | other: immunogenicity (growth inhibition by induced IgG), EC50 [1] | other: immunogenicity, other: median PfRH5-specific IgG [2] | other: immunogenicity (antibody quality, GIA per antigen-specific IgG), EC50 [3]
PfRH5 (from UniProt Q8IFM5) | 1500 | – | – | –
PfRH5 (reticulocyte-binding protein homolog 5): v3.0 (four Asn to Gln) (protein) parent chain: MIRIKKKLILTIIYIHLFILNRLSFENAIKKTKNQENNLTLLPIKSTEEEKDDIKNGKDIKKEIDNDKENIKTNNAKDHSTYIKSYLNTNVNDGLKYLFIPSHNSFIKKYSVFNQINDGMLLNEKNDVKNNEDYKNVDYKNVNFLQYHFKELSNYNIANSIDILQEKEGHLDFVIIPHYTFLDYYKHLSYNSIYHKSSTYGKCIAVDAFIKKINETYDKVKSKCNDIKNDLIATIKKLEHPYDINNKNDDSYRYDISEEIDDKSEETDDETEEVEDSIQDTDSNHTPSNKKKNDLMNRTFKKMMDEYNTKKKKLIKCIKNHENDFNKICMDMKNYGTNLFEQLSCYNNNFCNTNGIRYHYDEYIHKLILSVKSKNLNKDLSDMTNILQQSELLLTNLNKKMGSYIYIDTIKFIHKEMKHIFNRIEYHTKIINDKTKIIQDKIKLNIWRTFQKDELLKRILDMSNEYSLFITSDHLRQMLYNTFYSKEKHLNNIFHHLIYVLQMKFNDVPIKMEYFQTYKKNKPLTQ | – | increases, 8.4 vs >10 | increases, 535 vs 40 | –
PfRH5 (reticulocyte-binding protein homolog 5): v4.0 (N38Q and N214Q) (protein) parent chain: MIRIKKKLILTIIYIHLFILNRLSFENAIKKTKNQENNLTLLPIKSTEEEKDDIKNGKDIKKEIDNDKENIKTNNAKDHSTYIKSYLNTNVNDGLKYLFIPSHNSFIKKYSVFNQINDGMLLNEKNDVKNNEDYKNVDYKNVNFLQYHFKELSNYNIANSIDILQEKEGHLDFVIIPHYTFLDYYKHLSYNSIYHKSSTYGKCIAVDAFIKKINETYDKVKSKCNDIKNDLIATIKKLEHPYDINNKNDDSYRYDISEEIDDKSEETDDETEEVEDSIQDTDSNHTPSNKKKNDLMNRTFKKMMDEYNTKKKKLIKCIKNHENDFNKICMDMKNYGTNLFEQLSCYNNNFCNTNGIRYHYDEYIHKLILSVKSKNLNKDLSDMTNILQQSELLLTNLNKKMGSYIYIDTIKFIHKEMKHIFNRIEYHTKIINDKTKIIQDKIKLNIWRTFQKDELLKRILDMSNEYSLFITSDHLRQMLYNTFYSKEKHLNNIFHHLIYVLQMKFNDVPIKMEYFQTYKKNKPLTQ | – | no change, >10 vs >10 | increases, 116 vs 40 | –
PfRH5 (reticulocyte-binding protein homolog 5): v2.0 (four Thr to Ala) (protein) parent chain: MIRIKKKLILTIIYIHLFILNRLSFENAIKKTKNQENNLTLLPIKSTEEEKDDIKNGKDIKKEIDNDKENIKTNNAKDHSTYIKSYLNTNVNDGLKYLFIPSHNSFIKKYSVFNQINDGMLLNEKNDVKNNEDYKNVDYKNVNFLQYHFKELSNYNIANSIDILQEKEGHLDFVIIPHYTFLDYYKHLSYNSIYHKSSTYGKCIAVDAFIKKINETYDKVKSKCNDIKNDLIATIKKLEHPYDINNKNDDSYRYDISEEIDDKSEETDDETEEVEDSIQDTDSNHTPSNKKKNDLMNRTFKKMMDEYNTKKKKLIKCIKNHENDFNKICMDMKNYGTNLFEQLSCYNNNFCNTNGIRYHYDEYIHKLILSVKSKNLNKDLSDMTNILQQSELLLTNLNKKMGSYIYIDTIKFIHKEMKHIFNRIEYHTKIINDKTKIIQDKIKLNIWRTFQKDELLKRILDMSNEYSLFITSDHLRQMLYNTFYSKEKHLNNIFHHLIYVLQMKFNDVPIKMEYFQTYKKNKPLTQ | – | increases, 4 vs >10 | increases, 278 vs 40 | no change, median EC50 of 129 μg/mL (95% CI 80.7–186.7 μg/mL) anti-PfRH5 IgG
